In publication PMC9986870 one finds Kd data, which are given here for one substance.

In the experiment the target is Alexa Fluor 488 labeled α-synuclein (UniProt P37840). In words: MST; apparent; constant 50 nM αS-AF488, dilution series of 16 HSA concentrations (50 μM to 6.25 nM); 10 mM Na2HPO4, 1.8 mM KH2PO4, 137 mM NaCl, 2.7 mM KCl, pH 7.4; Monolith NT.115, LED power 20%, MST power 20, 40 and 80%, data normalised and averaged.

As to “human serum albumin (from UniProt P02768 25-609) (natural protein)”, the Kd stood at 300 nM.
